Data from article PMC2806950.

Biological target: T1, Ocr (overcome classical restriction) protein of bacteriophage T7, unmodified (bacteriophage T7), P03775
T1 chain: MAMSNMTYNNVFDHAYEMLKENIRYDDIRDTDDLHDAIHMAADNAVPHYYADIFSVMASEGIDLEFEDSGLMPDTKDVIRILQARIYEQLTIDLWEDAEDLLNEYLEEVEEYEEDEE
Assay: native gel or EMSA; blue native PAGE (NativePAGE Novex 4-16% Bis-Tris) of unmodified Ocr; also native 15% PAGE, non-denaturing reducing conditions
Conditions: remark: other sources report otherwise

B1: Ocr (overcome classical restriction) protein of bacteriophage T7, unmodified, P03775 1-117 (natural protein)
chain: T1 chain
  stoichiometry N: 4
